The source of these data is patent US20220106398A1 (IGM BIOSCIENCES, published 2022).

Common to all, as to assay: ELISA, scFv periplasmic extract on coated His6-GITR
Background: An ELISA detects its analyte on a solid surface through an enzyme-linked reagent.

The target of assay [1] is T1, mouse His6-GITR (mouse, UniProt O35714 20-153).
T1 construct: His6-tagged recombinant protein; also called mGITR-His; mouse GITR-His
T1 sequence: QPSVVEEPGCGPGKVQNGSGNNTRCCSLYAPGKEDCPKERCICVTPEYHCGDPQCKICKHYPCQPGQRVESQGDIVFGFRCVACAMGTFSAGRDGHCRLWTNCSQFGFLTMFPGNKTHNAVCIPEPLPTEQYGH
The procedure:
(§1) The SuperHuman-2.0 scFv Antibody Library (available from Distributed Bio, South San Francisco, Calif.) was used to perform selection with human, cynomolgus or mouse GITR proteins. Selected phage clones from overnight growth were inoculated into wells in 96 well deep well plates containing 1 mL of medium. scFv expression was induced by addition of IPTG (Teknova) to a final concentration of 1 mM. Plates were grown overnight after induction. To prepare periplasmic extracts (PPE), the plates containing the phage clones were centrifuged at 2500 rpm for 10 min, the supernatant discarded and then pellets treated with 75 μL of cold periplasmic extract buffer with appropriate concentration of protease inhibitors (Complete Mini, EDTA-free -Roche Applied Biosciences—Cat No 1836170). After shaking at room temperature for 10 min, 225 μL of cold ddH2O with added protease inhibitor (1 tablet/50 mL) was added per well and mixed by pipetting up and down. PPE extraction was completed by incubation at room temperature for an additional 1 hr. The plates were then centrifuged at 4000 rpm for 20 minutes and 200 μL of PPE supernatant was collected from each well and transferred to a new plate which was then blocked with equal volume of 4% milk (2% final) to prepare blocked PPE extracts. In the meantime, Maxisorp plates (Nunc 442404) coated with relevant antigen (human, mouse or cynomolgus monkey His6-GITR) at 50 μl/well of 1 μg/mL antigen or 2% BSA in PBS as control were prepared for ELISA analyses. Next, 50 μL of each blocked PPE extract was transferred to the pre-blocked ELISA plates coated with the relevant antigens. After incubation and washing 3× with PBS, 50 μL of anti-V5 tag antibody (tag included in the phage display constructs, Invitrogen Cat No R960-25) at 1:5000 dilution in 2% milk was added and the plates were incubated for 1 hr. […] After further washing 3× with PBST, 50 μl/well of TMB substrate was added and the plates were developed until positive controls were visible. The reaction was stopped with 50 μl/well of 2N H2SO4. Plates were read at 450 nm to determine ELISA signal from bound PPE derived scFv.

Assay [2] addresses T2, human His6-GITR (human, UniProt Q9Y5U5 26-162).
T2 construct: His6-tagged recombinant protein; also called hGITR-His; human GITR-His
T2 sequence: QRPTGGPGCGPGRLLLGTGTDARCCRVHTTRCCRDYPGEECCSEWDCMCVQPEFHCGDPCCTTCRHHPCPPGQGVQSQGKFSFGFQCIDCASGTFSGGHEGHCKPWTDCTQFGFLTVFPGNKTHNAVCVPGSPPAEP
As for the experimental part:
as §1

Assay [3] has as its target T3, cynomolgus monkey His6-GITR (cynomolgus monkey).
T3 construct: His6-tagged recombinant protein; also called cGITR-His; cyno GITR-His
T3 chain: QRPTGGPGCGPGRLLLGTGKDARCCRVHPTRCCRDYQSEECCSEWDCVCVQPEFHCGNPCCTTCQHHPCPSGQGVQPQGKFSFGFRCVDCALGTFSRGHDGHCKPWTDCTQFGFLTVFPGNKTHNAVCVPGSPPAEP
The procedure:
as §1

B1: GITR-Mab-42 scFv (scFv, V domains shown)
VH: QVQLVQSGAEVKKPGASVKVSCKASGYIFTNYWIQWVRQAPGQGLEWMGWINPHSGATKYAERFQGRVTMTRDTSTSTVYMELSSLRSEDTAVYYCARGLGSAFDIWGQGTMVTVSS
VL: not shown
notes: scFv in periplasmic extract, V5 tag
The molecule B1 yielded a mGITR-His/BKG in assay [1] of 1 fold over background. The molecule also yielded a hGITR-His/BKG in assay [2] of 5.5 fold over background. The cGITR-His/BKG in assay [3] came out at 4.2 fold over background.

B2: GITR-Mab-46 scFv (scFv, V domains shown)
VH: QVQLVQSGAEVKKPGASVKVSCKASGGSFSNYAINWVRQAPGQGLEWMGWMNPYSGNTGYAQKFQGRVTMTRDTSTSTVYMELSSLRSEDTAVYYCAREITANYYYGMDVWGQGTKVTVSS
VL: DIQMTQSPSSLSASVGDRVTITCQASQDISNYLNWYQQKPGKAPKLLIYEASVLESGVPSRFSGSGSGTDFTLTISSLQPEDFATYYCQQSYTTQYTFGQGTKVEIK
notes: as for B1
With B2, the mGITR-His/BKG in assay [1] was 6.5 fold over background. In assay [2], this molecule showed a hGITR-His/BKG of 4 fold over background. Moreover, the cGITR-His/BKG in assay [3] came to 5.3 fold over background.

B3: GITR-Mab-41 scFv (scFv, V domains shown)
VH: QVQLVQSGAEVKKPGASVKVSCKASGGSFSDYAVSWVRQAPGQGLEWMGWMNPNSGNTGYAQKFQGRVTMTRDTSTSTVYMELSSLRSEDTAVYYCARELVRDGYNFALDYWGQGTLVTVSS
VL: DIQMTQSPSSLSASVGDRVTITCRASQDIRNDLAWYQQKPGKAPKLLIYAASSLQSGVPSRFSGSGSGTDFTLTISSLQPEDFATYYCQQSFSTFYTFGQGTKLEIK
notes: as for B1
For the molecule B3, in assay [1], the mGITR-His/BKG worked out at 10.4 fold over background. For the same molecule, the hGITR-His/BKG in assay [2] amounted to 9.9 fold over background. In assay [3], this molecule registered a cGITR-His/BKG of 10.3 fold over background.

B4: GITR-Mab-44 scFv (scFv, V domains shown)
VH: QVQLVQSGAEVKKPGASVKVSCKASGYTFTSHDIDWVRQAPGQGLEWMGWINPSGDSTSYAQKFQGRVTMTRDTSTSTVYMELSSLRSEDTAVYYCARYYGGNSYAFDIWGQGTMVTVSS
VL: DIQMTQSPSSLSASVGDRVTITCRASESISPWVAWYQQKPGKAPKLLIYAASTLQSGVPSRFSGSGSGTDFTLTISSLQPEDFATYYCQQGTSTPYTFGQGTKLEIK
notes: as for B1
In assay [1], B4 registered a mGITR-His/BKG of 15.6 fold over background. The hGITR-His/BKG in assay [2] turned out to be 12.4 fold over background. The molecule also gave a cGITR-His/BKG in assay [3] of 12.3 fold over background.

B5: GITR-Mab-47 scFv (scFv, V domains shown)
VH: QVQLVQSGAEVKKPGSSVKVSCKASGGTFSTYAINWVRQAPGQGLEWMGIINPTDGDTSYAQKFQGRVTITADESTSTAYMELSSLRSEDTAVYYCARAAYYYYGMDVWGQGTTVTVSS
VL: not shown
notes: as for B1
Consider B5, for which the mGITR-His/BKG in assay [1] amounted to 24.9 fold over background. Further, in assay [2], the hGITR-His/BKG was 13 fold over background. Further, in assay [3], the cGITR-His/BKG was found to be 21 fold over background.

B6: GITR-Mab-40 scFv (scFv, V domains shown)
VH: EVQLLESGGGLVQPGGSLRLSCAASGFTFRNHWMSWVRQAPGKGLEWVSGISWNSGSIDYADSVKGRFTISRDNSKNTLYLQMNSLRAEDTAVYYCAREEYATFDYWGQGTLVTVSS
VL: not shown
notes: as for B1
B6 yielded a mGITR-His/BKG in assay [1] of 23.2 fold over background. Moreover, the hGITR-His/BKG in assay [2] turned out to be 13.9 fold over background. Also, the cGITR-His/BKG in assay [3] was 15.5 fold over background.

B7: GITR-Mab-39 scFv (scFv, V domains shown)
VH: EVQLLESGGGLVKPGGSLRLSCAASGFTFSSYWMSWVRQAPGKGLEWVSSISWSSTYIYYADSVKGRFTISRDDSKNTLYLQMNSLKTEDTAVYYCARDGQLGHWHFDLWGRGTLVTVSS
VL: DIQMTQSPSSLSASVGDRVTITCRASQSISDWLAWYQQKPGKAPKLLIYEASKLATGVPSRFSGSGSGTDFTLTISSLQPEDFATYYCQQSYTTPLTFGGGTKVEIK
notes: as for B1
As for B7, the mGITR-His/BKG in assay [1] was 4.4 fold over background. This molecule also displayed a hGITR-His/BKG in assay [2] of 4.2 fold over background. The molecule further registered a cGITR-His/BKG in assay [3] of 4 fold over background.

B8: GITR-Mab-43 scFv (scFv, V domains shown)
VH: QVQLVQSGAEVKKPGASVKVSCKASGYTFTSHDIDWVRQAPGQGLEWMGWMNPNNGNTVYAQRFQGRVTMTRDTSTSTVYMELSSLRSEDTAVYYCARWKVYSGSYYGGAGYFDLWGRGTLVTVSS
VL: DIQMTQSPSSLSASVGDRVTITCRASQSISSYLNWYQQKPGKAPKLLIYRASHLEGGVPSRFSGSGSGTDFTLTISSLQPEDFATYYCQQADSLPLTFGQGTKVEIK
notes: as for B1
In assay [1], B8 had a mGITR-His/BKG of 14.6 fold over background. This molecule registered a hGITR-His/BKG in assay [2] of 11.7 fold over background. The cGITR-His/BKG in assay [3] was 12 fold over background.
